Test results: the supplement of paper PMC12764529
± gives the half width of the 95% confidence interval.

What was measured:
[1] = folding stability dG unfold from trypsin proteolysis; higher = more stable
Experimental: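 Folding stability of de novo designed mini-proteins (<80 aa, no Cys; designed by TrROS, TrMRF, ProteinMPNN and the joint model) was measured by cDNA display proteolysis with trypsin and chymotrypsin. Each protease was used at 11 concentrations in a threefold dilution series plus a no-protease condition. K50 was inferred by Bayesian fitting of sequencing counts, and dG unfold was derived against a sequence-predicted unfolded-state K50 (Tsuboyama et al. method). Sequences shown include variable-length N-terminal GS-type padding (SAGGSAGG...) inside a display construct carrying a PA tag. Rows were kept only if the AF2 dimer inter-PAE was >15, to exclude likely homo-oligomers.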

[2] = folding stability dG unfold (combined trypsin and chymotrypsin); higher = more stable
Summary of the method: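 Only designs with AlphaFold2 dimer inter-PAE above 15 were retained; each was a mini-protein under 80 residues with no cysteine, in a PA-tagged cDNA display construct. After digestion with trypsin and chymotrypsin and sequencing, K50 was inferred by Bayesian fitting of counts, and unfolding free energy was derived per protease or combined against a sequence-predicted unfolded-state K50 and a shared folded-state K50.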

Which “folding stability dG unfold” value [1] does the source give for “SAGGSAGGSWPFRIEIYNPENGKEEVKDIPGDLDELKDLIPPGYRVKIEFGDEEITIPIDDIKSAGGSAGGS [r20_36_TrROS]” here?
Its value is -0.331 ± 0.16 kcal/mol.

What about the “folding stability dG unfold” value [2] of the same sequence?
The value was -0.587 ± 0.27 kcal/mol.

What does the source list for “SAGGSAGSMSIEEVVEKAKEEGIEVEVTSLPESGLTVVTITKKLPNGEVVESIILEHPEGTTTVLSSAGGSA [r15_1051_JUSTAS]”?
folding stability dG unfold [1]: 0.644 ± 0.057 kcal/mol; folding stability dG unfold [2]: 0.0134 ± 0.14 kcal/mol

With “SAGGSAIKITKVEYEPNPDGWREIHFKATPGDPDFLDEIAEALPPDNIEPTEVDEKGYYEIRIPRPSAGGSA [r15_386_TrROS]” as the sequence, how does the “folding stability dG unfold” value [1] read?
Its value is 0.0955 ± 0.058 kcal/mol.

What about the “folding stability dG unfold” value [2] of the same sequence?
The value was -0.291 ± 0.17 kcal/mol.

With “SAGGSALIVLEGDLDSVVALAKEAGDPNVKVEPVADFNDDPSEPRLYRITIERDGEPDGELLFLDPSAGGSA [r15_428_TrMRF]” as the sequence, how does the “folding stability dG unfold” value [1] read?
Its value is -0.0896 ± 0.1 kcal/mol.

What about the “folding stability dG unfold” value [2] of the same sequence?
Its value is less than -1 kcal/mol.

Which “folding stability dG unfold” value [1] does the source give for “SAGGSAMIRTFNIKFPGKSEEEALEAIKNLPEEVTEKIEEVKVEEIKKEGDSIYVKLTIKVPKEILSAGGSA [r15_244_JUSTAS]” here?
Its value is 0.636 ± 0.19 kcal/mol.

And the “folding stability dG unfold” value [2]?
The value was 0.00147 ± 0.51 kcal/mol.

What does the source list for “SAGGSANTIMIPFDDLTPDKILEAAEESPDPIMIHNPDNGRFLTVEVEDGGIDDVTWEPFDPEDFGSAGGSA [r15_751_TrROS]”?
folding stability dG unfold [1]: 0.499 ± 0.042 kcal/mol; folding stability dG unfold [2]: -0.135 ± 0.18 kcal/mol

With “SAGGSAPNEEITIPIRIRVENPEDGKPIHEIPIPIKVPKGQTQDQILDQAKNWMEEHGMKIKEIEISAGGSA [r15_195_TrROS]” as the sequence, how does the “folding stability dG unfold” value [1] read?
The value was -1.32 ± 0.86 kcal/mol.

And the “folding stability dG unfold” value [2]?
The value was less than -1 kcal/mol.

Which “folding stability dG unfold” value [1] does the source give for “SAGGSASIDELKEEILAKTPPDVVTTGYATSSDSLSTRTYSTPAGHRVVISYTDNEIKSVSLEKAGSAGGSA [r15_175_JUSTAS]” here?
The value was 0.333 ± 0.16 kcal/mol.

What about the “folding stability dG unfold” value [2] of the same sequence?
Its value is -0.138 ± 0.22 kcal/mol.

For “SAGGSASVPPGKSVTLRISFPETGEERTITLDVKSSEELEAAAELEVPRPDGTPVPVTVSVVETVPSAGGSA [r15_797_JUSTAS]”, which “folding stability dG unfold” value [1] is on record?
The value was 0.386 ± 0.094 kcal/mol.

And the “folding stability dG unfold” value [2]?
The value was 0.085 ± 0.24 kcal/mol.

What does the source list for “SAGGSAVPPSANVGPLKEKIEVTEDPEKGTKTYTRVLKDPATGKTIVETSVIPPDGSVTLVKTVLVSAGGSA [r15_146_JUSTAS]”?
folding stability dG unfold [1]: -0.0156 ± 0.073 kcal/mol; folding stability dG unfold [2]: -0.307 ± 0.12 kcal/mol

For “SAGGSDYVGRVQIDKVDPEDPGQVRINLEWWQPNGKAIPIEHTIPNEQLKNNPPDATIEFKMEPPPSAGGSA [r2_128_TrROS]”, which “folding stability dG unfold” value [1] is on record?
The value was -0.514 ± 0.32 kcal/mol.

And the “folding stability dG unfold” value [2]?
Its value is less than -1 kcal/mol.

For “SAGGSEVRELAEAIAAARGLPLRAIETKEVTPDTVEITMELPDDRTLTVTVPRSPEGGYEVTVTEDASAGGS [r8_284_JUSTAS]”, which “folding stability dG unfold” value [1] is on record?
Its value is -0.349 ± 0.26 kcal/mol.

What about the “folding stability dG unfold” value [2] of the same sequence?
The value was less than -1 kcal/mol.

With “SAGGSMIEVEIENPDPSVSPEEIAERVIRELTPDGGPLQPLEIKPTLVGDKPVYKIKIYIPDPELIKESAGG [r13_979_JUSTAS]” as the sequence, how does the “folding stability dG unfold” value [1] read?
The value was -0.519 ± 0.2 kcal/mol.

And the “folding stability dG unfold” value [2]?
The value was less than -1 kcal/mol.

Which “folding stability dG unfold” value [1] does the source give for “SAGGSMPITVSVPVPPDVPLEEVAERIEKELREAGIEADVREVTRVPGEGRILLHFDAGKTGVIPASAGGSA [r2_242_JUSTAS]” here?
The value was -0.251 ± 0.12 kcal/mol.

And the “folding stability dG unfold” value [2]?
Its value is less than -1 kcal/mol.

For “SAGGSPKPIAEAILKELGYPDAIVKNIPIEKLENGIIIIPLEVIYPKNPKKGKPIKRIIKPNEKFASAGGSA [r2_137_TrMRF]”, which “folding stability dG unfold” value [1] is on record?
Its value is 0.108 ± 0.095 kcal/mol.

And the “folding stability dG unfold” value [2]?
Its value is less than -1 kcal/mol.

For “SAGGSSMEELIKAVLEAAEAGKKAVNVKMPLPDGGEIEILDGGVIRIIPPDGVPLEEKIPVSELILSAGGSA [r2_97_JUSTAS]”, which “folding stability dG unfold” value [1] is on record?
Its value is 0.442 ± 0.044 kcal/mol.

And the “folding stability dG unfold” value [2]?
Its value is less than -1 kcal/mol.

What does the source list for “SAGGSSMLSPSESLPLPPDEDVEVSLPSPLSAKLTYDPATGTVSVTVTDPNNPGVPLSSTTRPLTASAGGSA [r2_266_JUSTAS]”?
folding stability dG unfold [1]: 0.662 ± 0.037 kcal/mol; folding stability dG unfold [2]: -0.203 ± 0.22 kcal/mol

With “SAGGTKYTVSLRPPPTALPSREFTDSPLEIVEALPEDTTEATVTVDNNSTSTTVTFTTKEDLIAAVASSAGG [r13_299_JUSTAS]” as the sequence, how does the “folding stability dG unfold” value [1] read?
Its value is 0.00719 ± 0.14 kcal/mol.

And the “folding stability dG unfold” value [2]?
The value was -0.14 ± 0.33 kcal/mol.

What does the source list for “SAGGTPIGDGQTGESSTFDEEVTDPVTGEKVKVKVTIPVTIDPETGKTVRTVTITNPLEGKTTTTLTLSAGG [r13_262_JUSTAS]”?
folding stability dG unfold [1]: -0.379 ± 0.13 kcal/mol; folding stability dG unfold [2]: < -1 kcal/mol

Which results are given for “SAGGWIPIDEIKDLLDNGKPMPLEQIVKEIQKDFGYPVTIEEDDDSFWIHVENPNTGEPREEIEIDPSAGGS [r8_105_TrROS]”?
folding stability dG unfold [1]: 0.354 ± 0.11 kcal/mol; folding stability dG unfold [2]: -0.392 ± 0.38 kcal/mol

Which “folding stability dG unfold” value [1] does the source give for “SAGGYDKEGKPIRVVEINIPPDQPDTILKFAREEIDNNRWDIIHITSPNQVKWIKQAFPEKGIPIHIQSAGG [r13_353_TrROS]” here?
The value was 0.311 ± 0.3 kcal/mol.

And the “folding stability dG unfold” value [2]?
The value was -0.167 ± 0.38 kcal/mol.

What does the source list for “SAGKVEVKVDEETGTVTVTVEVNGELVEKKVEVKPPPPVKVFSAEELRERNPELKKLLEENPDKLVVLESAG [r5_957_TrROS_Hall]”?
folding stability dG unfold [1]: -0.473 ± 0.26 kcal/mol; folding stability dG unfold [2]: < -1 kcal/mol

For “SAGMEAEAERIAEELERELPPTYRITSITVTPQPDNTWVAPITIEKVDAEGRVLGPSTVTVTLPPGLGSAGG [r19_28_JUSTAS]”, which “folding stability dG unfold” value [1] is on record?
The value was 0.494 ± 0.044 kcal/mol.

And the “folding stability dG unfold” value [2]?
The value was -0.452 ± 0.14 kcal/mol.

What does the source list for “SAGMEIKIEKLEDGTYKITIKLYNKETNEEIEEIEIEVKKLKDGTYKVKIKIKNKETGKEFELEFEIKPSAG [r5_610_TrROS_Hall]”?
folding stability dG unfold [1]: 4.02 ± 0.34 kcal/mol; folding stability dG unfold [2]: > 6 kcal/mol
